Experimental data from US20260167693A1 (ANGELES THERAPEUTICS, published 2026).

T1: CD19-ECD-GGSG-NLuc-AcV5 (human)
T1 construct: also called CD19-GGSG-NLuc-AcV5; Flag-CD19-GGSG-NLuc-AcV5
T1 chain: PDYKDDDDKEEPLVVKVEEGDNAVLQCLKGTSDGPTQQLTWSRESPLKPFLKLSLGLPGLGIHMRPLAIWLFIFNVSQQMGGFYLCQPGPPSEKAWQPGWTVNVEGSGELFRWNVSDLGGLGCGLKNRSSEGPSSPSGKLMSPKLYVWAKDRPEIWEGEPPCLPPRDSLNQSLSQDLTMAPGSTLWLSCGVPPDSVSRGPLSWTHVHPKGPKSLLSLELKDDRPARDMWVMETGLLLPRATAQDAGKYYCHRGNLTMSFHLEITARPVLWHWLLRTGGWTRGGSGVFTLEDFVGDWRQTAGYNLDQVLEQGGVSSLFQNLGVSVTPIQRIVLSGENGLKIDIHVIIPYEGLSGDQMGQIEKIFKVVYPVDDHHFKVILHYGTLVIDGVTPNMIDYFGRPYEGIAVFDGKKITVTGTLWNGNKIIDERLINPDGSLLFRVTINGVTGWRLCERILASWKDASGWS


Target: T1, CD19-ECD-GGSG-NLuc-AcV5
Experiment: NLuc binding assay, SIR on Jurkat-NFAT-GFP cells

CD19-GGSG-NLuc (RLU)	Binder
7570	CD8SP-FMC63-vL-[hTCRb-R18A22]-F-P2A-SP-FMC63-vH-Myc4-[hTCRa-SD]-F-F2A-PAC (other, Polyprotein PRT 12439; also called 112116-R08) TCR beta: DIQMTQTTSSLSASLGDRVTISCRASQDISKYLNWYQQKPDGTVKLLIYHTSRLHSGVPSRFSGSGSGTDYSLTISNLEQEDIATYFCQQGNTLPYTFGGGTKLEITEDLKNVFPPEVAVFEPSRAEIAHTQKATLVCLATGFYPDHVELSWWVNGKEVHSGVSTDPQPLKEQPALNDSRYCLSSRLRVSATFWQNPRNHFRCQVQFYGLSENDEWTQDRAKPVTQIVSAEAWGRADCGFTSESYQQGVLSATILYEILLGKATLYAVLVSALVLMAMVKRKDSRG TCR alpha: EVKLQESGPGLVAPSQSLSVTCTVSGVSLPDYGVSWIRQPPRKGLEWLGVIWGSETTYYNSALKSRLTIIKDNSKSQVFLKMNSLQTDDTAIYYCAKHYYYGGSYAMDYWGQGTSVTVSSEQKLISEEDLGSGIQNPDPAVYQLRDSKSSDKSVCLFTDFDSQTNVSQSKDSDVYITDKTVLDMRSMDFKSNSAVAWSNKSDFACANAFNNSIIPEDTFFPSSDSSCDVKLVEKSFETDTNLNFQNLSVIGFRILLLKVAGFNLLMTLRLWSS
4480	CD8SP-FMC63-vL-Myc2-[hTCRb-R18A22]-F-P2A-SP-FMC63-vH-Myc4-[hTCRa-SD]-F-F2A-PAC (other, Polyprotein PRT 12440; also called 112116-S08) TCR beta: DIQMTQTTSSLSASLGDRVTISCRASQDISKYLNWYQQKPDGTVKLLIYHTSRLHSGVPSRFSGSGSGTDYSLTISNLEQEDIATYFCQQGNTLPYTFGGGTKLEITEQKLISEEDLGSGEDLKNVFPPEVAVFEPSRAEIAHTQKATLVCLATGFYPDHVELSWWVNGKEVHSGVSTDPQPLKEQPALNDSRYCLSSRLRVSATFWQNPRNHFRCQVQFYGLSENDEWTQDRAKPVTQIVSAEAWGRADCGFTSESYQQGVLSATILYEILLGKATLYAVLVSALVLMAMVKRKDSRG TCR alpha: EVKLQESGPGLVAPSQSLSVTCTVSGVSLPDYGVSWIRQPPRKGLEWLGVIWGSETTYYNSALKSRLTIIKDNSKSQVFLKMNSLQTDDTAIYYCAKHYYYGGSYAMDYWGQGTSVTVSSEQKLISEEDLGSGIQNPDPAVYQLRDSKSSDKSVCLFTDFDSQTNVSQSKDSDVYITDKTVLDMRSMDFKSNSAVAWSNKSDFACANAFNNSIIPEDTFFPSSDSSCDVKLVEKSFETDTNLNFQNLSVIGFRILLLKVAGFNLLMTLRLWSS
3910	CD8SP-FMC63-vL-[hTCRb-R18]-F-P2A-SP-FMC63-vH-Myc4-[hTCRa-SD]-F-F2A-PAC (other, Polyprotein PRT 12442; also called 112116-U08) TCR beta: DIQMTQTTSSLSASLGDRVTISCRASQDISKYLNWYQQKPDGTVKLLIYHTSRLHSGVPSRFSGSGSGTDYSLTISNLEQEDIATYFCQQGNTLPYTFGGGTKLEITEDLKNVFPPEVAVFEPSRAEISHTQKATLVCLATGFYPDHVELSWWVNGKEVHSGVSTDPQPLKEQPALNDSRYCLSSRLRVSATFWQNPRNHFRCQVQFYGLSENDEWTQDRAKPVTQIVSAEAWGRADCGFTSESYQQGVLSATILYEILLGKATLYAVLVSALVLMAMVKRKDSRG TCR alpha: EVKLQESGPGLVAPSQSLSVTCTVSGVSLPDYGVSWIRQPPRKGLEWLGVIWGSETTYYNSALKSRLTIIKDNSKSQVFLKMNSLQTDDTAIYYCAKHYYYGGSYAMDYWGQGTSVTVSSEQKLISEEDLGSGIQNPDPAVYQLRDSKSSDKSVCLFTDFDSQTNVSQSKDSDVYITDKTVLDMRSMDFKSNSAVAWSNKSDFACANAFNNSIIPEDTFFPSSDSSCDVKLVEKSFETDTNLNFQNLSVIGFRILLLKVAGFNLLMTLRLWSS
6840	CD8SP-FMC63-vL-V5-[hTCRb-KACIAH]-F-P2A-SP-FMC63-vH-Myc-[hTCRa-CSDVP]-F-F2A-PAC (010616-C01)[SEQ ID NO:1200] (other, Polyprotein PRT 3435; also called 102615-C08) TCR beta: DIQMTQTTSSLSASLGDRVTISCRASQDISKYLNWYQQKPDGTVKLLIYHTSRLHSGVPSRFSGSGSGTDYSLTISNLEQEDIATYFCQQGNTLPYTFGGGTKLEITGKPIPNPLLGLDSTGSGEDLKNVFPPEVAVFEPSKAEIAHTQKATLVCLATGFYPDHVELSWWVNGKEVHSGVCTDPQPLKEQPALNDSRYCLSSRLRVSATFWQNPRNHFRCQVQFYGLSENDEWTQDRAKPVTQIVSAEAWGRADCGITSASYHQGVLSATILYEILLGKATLYAVLVSALVLMAMVKRKDSRG TCR alpha: EVKLQESGPGLVAPSQSLSVTCTVSGVSLPDYGVSWIRQPPRKGLEWLGVIWGSETTYYNSALKSRLTIIKDNSKSQVFLKMNSLQTDDTAIYYCAKHYYYGGSYAMDYWGQGTSVTVSSEQKLISEEDGSGIQNPDPAVYQLRDSKSSDKSVCLFTDFDSQTNVSQSKDSDVYITDKCVLDMRSMDFKSNSAVAWSNKSDFACANAFNNSIIPEDTFFPSSDVPCDVKLVEKSFETDTNLNFQNLSVIGFRILLLKVAGFNLLMTLRLWSS
2180	CD8SP-FMC63-vL-[hTCRb-S57C-opt]-F-P2A-SP-FMC63-vH-Myc-[hTCRa-CSDVP]-F-F2A-PAC (other, Polyprotein PRT 12438; also called 110916-P02) TCR beta: DIQMTQTTSSLSASLGDRVTISCRASQDISKYLNWYQQKPDGTVKLLIYHTSRLHSGVPSRFSGSGSGTDYSLTISNLEQEDIATYFCQQGNTLPYTFGGGTKLEITEDLKNVFPPEVAVFEPSEAEISHTQKATLVCLATGFYPDHVELSWWVNGKEVHSGVCTDPQPLKEQPALNDSRYCLSSRLRVSATFWQNPRNHFRCQVQFYGLSENDEWTQDRAKPVTQIVSAEAWGRADCGFTSESYQQGVLSATILYEILLGKATLYAVLVSALVLMAMVKRKDSRG TCR alpha: EVKLQESGPGLVAPSQSLSVTCTVSGVSLPDYGVSWIRQPPRKGLEWLGVIWGSETTYYNSALKSRLTIIKDNSKSQVFLKMNSLQTDDTAIYYCAKHYYYGGSYAMDYWGQGTSVTVSSEQKLISEEDGSGIQNPDPAVYQLRDSKSSDKSVCLFTDFDSQTNVSQSKDSDVYITDKCVLDMRSMDFKSNSAVAWSNKSDFACANAFNNSIIPEDTFFPSSDVPCDVKLVEKSFETDTNLNFQNLSVIGFRILLLKVAGFNLLMTLRLWSS
20500	CD8SP-FMC63-vL-V5-[hTCRb-KACIAH]-F-P2A-SP-FMC63-vH-[GSG-hTCRa-T48C-opt]-F-F2A-PAC (other, Polyprotein PRT 12436; also called 110916-M04) TCR beta: DIQMTQTTSSLSASLGDRVTISCRASQDISKYLNWYQQKPDGTVKLLIYHTSRLHSGVPSRFSGSGSGTDYSLTISNLEQEDIATYFCQQGNTLPYTFGGGTKLEITGKPIPNPLLGLDSTGSGEDLKNVFPPEVAVFEPSKAEIAHTQKATLVCLATGFYPDHVELSWWVNGKEVHSGVCTDPQPLKEQPALNDSRYCLSSRLRVSATFWQNPRNHFRCQVQFYGLSENDEWTQDRAKPVTQIVSAEAWGRADCGITSASYHQGVLSATILYEILLGKATLYAVLVSALVLMAMVKRKDSRG TCR alpha: EVKLQESGPGLVAPSQSLSVTCTVSGVSLPDYGVSWIRQPPRKGLEWLGVIWGSETTYYNSALKSRLTIIKDNSKSQVFLKMNSLQTDDTAIYYCAKHYYYGGSYAMDYWGQGTSVTVSSGSGIQNPDPAVYQLRDSKSSDKSVCLFTDFDSQTNVSQSKDSDVYITDKCVLDMRSMDFKSNSAVAWSNKSDFACANAFNNSIIPEDTFFPSPESSCDVKLVEKSFETDTNLNFQNLSVIGFRILLLKVAGFNLLMTLRLWSS
2660	CD8SP-FMC63-vL-V5-[hTCRb-KACIAH]-F-P2A-SP-FMC63-vH-Myc4-[hTCRα-SD]-F-F2A-PAC (other, Polyprotein PRT 12444; also called 120916-R01) TCR beta: DIQMTQTTSSLSASLGDRVTISCRASQDISKYLNWYQQKPDGTVKLLIYHTSRLHSGVPSRFSGSGSGTDYSLTISNLEQEDIATYFCQQGNTLPYTFGGGTKLEITGKPIPNPLLGLDSTGSGEDLKNVFPPEVAVFEPSKAEIAHTQKATLVCLATGFYPDHVELSWWVNGKEVHSGVCTDPQPLKEQPALNDSRYCLSSRLRVSATFWQNPRNHFRCQVQFYGLSENDEWTQDRAKPVTQIVSAEAWGRADCGITSASYHQGVLSATILYEILLGKATLYAVLVSALVLMAMVKRKDSRG TCR alpha: EVKLQESGPGLVAPSQSLSVTCTVSGVSLPDYGVSWIRQPPRKGLEWLGVIWGSETTYYNSALKSRLTIIKDNSKSQVFLKMNSLQTDDTAIYYCAKHYYYGGSYAMDYWGQGTSVTVSSEQKLISEEDLGSGIQNPDPAVYQLRDSKSSDKSVCLFTDFDSQTNVSQSKDSDVYITDKTVLDMRSMDFKSNSAVAWSNKSDFACANAFNNSIIPEDTFFPSSDSSCDVKLVEKSFETDTNLNFQNLSVIGFRILLLKVAGFNLLMTLRLWSS
